Experimental data taken from patent CN106699884A (ZONHON BIOPHARMA INST INC; GENSUN INST BIOMEDICINE CO LTD, dated 2017).

Biological target: T1, 人C-反应蛋白 (human C-reactive protein, extracted from human plasma, HyTest) (human, UniProt P02741 19-224)
T1 construct: mature; Native protein from plasma; In the Western blot it was run on both non-denaturing and SDS gels; also called CRP; 天然CRP
T1 sequence (looked up): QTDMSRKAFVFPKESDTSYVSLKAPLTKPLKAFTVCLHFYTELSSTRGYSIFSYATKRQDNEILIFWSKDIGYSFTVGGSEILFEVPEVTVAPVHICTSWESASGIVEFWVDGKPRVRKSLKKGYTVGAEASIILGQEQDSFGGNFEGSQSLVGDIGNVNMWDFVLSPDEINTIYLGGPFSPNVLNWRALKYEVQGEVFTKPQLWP
Assay: Western blot, HRP-labelled scFv on native CRP from non-denaturing and SDS-PAGE gels

binding result: binds
B1: 单链抗体P20 (anti-human C-reactive protein scFv P20) (scFv)
scFv: EVMLVESGGGLVKPGGSLKLSCAASGFTFSSYAMSWVRQTPERRLEWVATISTSGSDRYYPDSVKWRFTISRDSAKNILYLQMSSLRSEDTAMYYCARRGWDYWGQGTSVTVSAGGGGSGGGGSGGGGSDVVMTQTPLSLPVSLGDQASISCRSSQSLVHSNGNTYLHWYLQKSGQSPKLLLYKVSNRFSGVSDRFSGSGSGTDFTLKISRVEAEDLGVYFCSQNTHVPPTFGGGTKLEIKR
notes: Recombinant scFv made in E. coli BL21(DE3) and purified on HisTrap HP; It was HRP-labelled (P20-HRP) in the Western blot and was the coating antibody on nitrocellulose in the colloidal gold card; also called P20-scFv-(HIS)6; P20-HRP
